From the nanobody polyreactivity screen of Harvey et al. (2022)

Assay: yeast display, Sf9 membrane polyspecificity reagent, FACS + sequencing; frameworks hold sequencing errors
In short: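 Genes from sorted yeast were amplified by colony PCR, read by MiSeq 2 × 250 sequencing and filtered on CDR length. These cells carried a synthetic nanobody library in Saccharomyces cerevisiae BJ5465 and were sorted by FACS into low and high (top ~1%) gates on anti-HA and streptavidin fluorescence. Polyreactivity is labelled according to the gate of origin.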

Sequence | polyreactivity (PSR sort gate)
QVQLVESVGGLVQAGGSLRLSCAASGRTFLRYAMGWYRQAPGKERELVAAISWSGGRTYYADSVKGRFTISRDNAKNTVYLQMNSLKPEDTAVYYCNKVVLYGAHYYYWGQGTQVTVSS | high polyreactivity
QVQLVESGGGLVQAGGSLRLSCAASGFNFNNNGMGWYRQAPGKERELDAAISYSGGRTYYADSVKGRFTISRDNAKNTLYLQMNSLKPEETAVYYFADNSYYSRYDYWGQGTQVTVSS | low polyreactivity
QVQLVESGGVLVQAGGSLRLSSAASGGTFWYYAMGMYRQEPGKERELVASISRGGSTNYADSVKGRFTISRDKAKHTVDLQMNRLKPEDTAVYYCIAGLRVGPRRYVDYEYDYWGQGSQVTVSS | low polyreactivity
QVQLVESGGGLVQAGGSLRLSCAASGSILSYYAMGWYRQAPGKERELVAAISKTGGRTYYADSVKGRFTISRDNAKNTVYLQMNSLKPEDTAVYYCAAVDTIGRYDYWGQGTQVTVSS | high polyreactivity
QVQLVESGGGLVQAGGSLRLSCAASGSTFTYYTMGWYRQAPGKERELVAAISRTTGSTYYADSVKGRFTISRDNAKNTVYLQMNSLKPEDTAVYYCAADYYTRYQYGYWGQGTQVTVSS | low polyreactivity
QVQLVESGGGFVQAGGSLRLSCPPSGRIIQAYAMAWYRQSPGKERELVAAISRSGGGTYYADSVKVRFTISRDNAKNTVYFLMNSLKPEDTAVSYCNAYYYYYTARWTQVNYWGQGTQVTVSS | high polyreactivity
QVQLVESGGCLVQAGGSLRLSCASSGNIFTIYTMGWYRQAPGKERELVASIYRGGTTYYADSVKGRFTISRDNAKNTVYLQMNSLKPEDTAVYYCAVYSPRLRRVHTRGYWGQGTQVTVSS | high polyreactivity
QVQLVESGGGLDQAGGSLRLSCAASGTIFTFYTMGWYRQAPGKERELVAAINWSGSRTYYADSVKGRFTISRDNAKNTVYLQMNSLKPEDTAVYYCAAEHWFPSAPWYYSDLHYYWGQGTQVTVSS | high polyreactivity
QVQLVESGGGLVQAGGSLRLSCAASGRIFVKYVIGWYRQAPGKERELVAAISSSGGRTYYADSVKGRFTISRDNAKNTVYLQMNSLKPEDTAVYYCAASFRRIYVSGLGGPFDYWGQGTQVNVSS | high polyreactivity
QVQLVESGGGLVQAGGSLRLSCAASGRTFRVYAMGWYRQAPGKERELVAAISWSDGSTYYADSVKGRFTISRDYAKNTVYLQMNSLKPEDTAVYYCNARVRVPVTLHDYWGQCTQVTVSS | high polyreactivity
QVQLVESGGGLVQAGGSLRLSCAASGRISVVNAMGWYRQAPGKERELVATINRGGSTYADSVKGRFTISRDNAKNTVYLQMNSLKPEDTAVYYCAARTFRISRMDYWGQGTQVTVSS | high polyreactivity
QVQLVESGGGLVQAGGSLRLSCAASGLTLETNAMGWYRQAPGKERELVAGITYSGGTTYYADSVKGRFTISRDNAKNTVYLQMNSLKPEDTAVYYCNAQERRVRDYDYWGQGTEVTVSS | low polyreactivity
QVQIVESGGGLVQAGGSLRLSCAASGSILYEYAMGWYRQAPGKERELVAAISSGDSTNYADSVKGRFTISRDNAKNTVYLQMNSLNPEDTAVYDCNRDFPRERFTYKFDYWGQGTQVTVSS | low polyreactivity
QVQLVESGGGLVQAGGSLRLSCAASGSTFTTYAMGWYRQAPGKERELVAAITSGGTTNYADSVKGRFTISRDNAKNTVYLQMNSLKPEDTAVYYCAARNNVEYLTIYKPYSFGSDSWGQGTQVTVSS | low polyreactivity
QVQLVESGGGLVQAGGSLRLSCAASGGTFQYHAMGWYRQAPGKERELVAAITRSGGSTYYADSVKGRFTISRDNAKNTVYLQMNSLKPEDTAVYYCAVRYVYGYPRYNYWGQGTQVTVSS | high polyreactivity
QVQLVESGGGLVQAGGSLRLSCAASGITFVSYTMGWYRQAPGTEREFVAAITWNVASTYYADSVKGRFTISRDNAKNTVYLQMNSLKPEDTAVYYCAAGYDWSVITIYDYWGQGTQVTVSS | high polyreactivity
QVQLVESGGGLVQAGGSLRLSCAASGRTFKGYAMGWYRQAPGKERELVAGISTGGNTNYADSVMGRFTISRDNAKNTVYLQMNSLKPEDTAVYYCNAVYRGFTHYTGYEYWGQGTQVTVSS | high polyreactivity
QVQLVESGGGLVQAGGSLRLSCAASGSTFVLNAMGWYRQAPGKERELVAAINLDSGNTNYADSVKGRFTISRDNAKYTVYLQMNSLKPEDTAVYYCNTDVKFGGTAYDYWGQGTQVTVSS | low polyreactivity
QVQLVESGGGLVQAGGSLRLSCAASGYIFLTNAMGWYRQAPGKERELVAAISVSGGRTYYADSVKGRFTISRDNAKNTVYLQMNSLKPEDTAVYYCNTLLTYGYDYWGQGTQVTVSS | low polyreactivity
QVQLVESGGGLVQAGGSLRLSCAASGLIYYRNAMGWYRQAPGKERELVAAISSDGSTYYADSVKGRFTISRDNPKNTVYLQMNSLKAEDTAVFYCAADYREFDAYGAARTLDFDYWGQGTQVTVSS | low polyreactivity
QVQLVESGGGLVQAGGSLRLSCAASGRTFCYAMGWSRQAPGKERELVAAISYRGGGTYYADSVTGRFTISRDNAKYTVYLQMTSLKPEDTEVYFCNARQYRPWYPPYGYDYWGQGTQVTVSS | low polyreactivity
QVQLVESGGGLVQAGGSLRLSCAASGITFDKYPMGRYRPAPGKDRELVAAISGSDGSTYYADSVKGRFTISRDNAKNSVYVQMNSLKPDDTAVYDCAAESVYAGTYEYDYWGQGTQVTVSS | low polyreactivity

Sequence | polyreactivity (PSR sort gate)
QVQLVESGGALVQAGGSLRLSCAASGIILLRYAMGWYRQAPGKERELVAAISYSGGSTYYADSVKGRFTISRDNAKNTVYLQMNSLKPEDTAVYYCNTVGPRRYSYDYWGQGTQVTVSS | high polyreactivity
QVQLVESAGGLVQAGGSLRLSCAASGRTFGYYAMGWYRQAPGKERELVAAISSGGSTNYADSVKGRFTISRDNAKNTVYLQMNSLKPEDTAVYHCAAKAWYYPGRRNYYQYYYWGQGTQVTVSS | high polyreactivity
QVQLVESGGGLVQAGGSLRLSCAASGIIFRPYAMGWYRQAPGKEREMVAAITWSGTSTYYADSVKGRFTISRDNAKNTVYLQMNSLKPEDTAVYYCAATWSYGVSWYEYWGQGTQVTVSS | high polyreactivity
QVQLVESGGGLVQAGGSLRLSCAASGNTFIDYAMGWYRQAPGKERELVASITSGGGSTYYADSVKGRFTISRDNAKNTVYLQMNSLKPEDTAVYYCAAERYYSEAIFRSYDYWGQGTQVTVSS | low polyreactivity
QVQLVESGGGLVQAGGSLRLSCAASGIIFRNYAMGWYRQAPGKERELVAAISRNGGSTYYADSVKGRFTISRDNAKNTVYLQMNSLKPEDTAVYYCAAVSPGTVTNGKSRDYWGQGTQVSVSS | high polyreactivity
QVQLVESGGGLVQAGGSLRLSCAASGITFQRYVMGWYRQAPGKERELVAAISFSGSSTYYADSVKGRFTISRDNAKNTVYLQMNSLKPEDTAVYYCAADGSVPKYVPYPRYYGYGYWGQGTQVTVSS | high polyreactivity
QVQLVESGGGLVQAGGSLRLSCAASGGTLPKYAMGWYRQAPGKERELVARITWNDGTTYYADSVKGRFTISRDNAKNTVYLQMNSLKPEDTAVYYCNTDRAYWFLYPFSYYYWGQGTQVTVSS | low polyreactivity
QVQLVESGGGLVQAGGSLRLSCAASGRIITGYAMGWYRQAPGKERELVAAISRGGSTNYADSVKGRFTISRDNAKNTVYLQMNSLKPEDTAVYYCAAGVHWDRGDYWGQGTQVTVSS | low polyreactivity
QVQLVESGGGLVQAGGSLRLSCAASGGTFVGYAMGWSRQAPGKERELVASITRRGGNTYYADSVKVRFTISRDNATNTFYLQMNSLNPEDTAVYYCANALVVQYGRYTGHPYDYWGQGTQVTVSS | high polyreactivity
QVQLVESGGGLFQAGGSHRLSCAASGRIFPSYAMGWYRQAPGTQRELVAAIPRGGASTYYADSVKGRFTISRDIAQNTVYLQMNSLKPEDTAVYYCAARRSYTYGRDYWGQGTQVTVSS | high polyreactivity
QVQLEESGGGLVQAGGTLRLSCAASVGIFNYYTMGWYREAPGKERELVAAITRGGSTYYADSVKGRFTISRDNAKNTVYLQMNSLKPEDTAVYYCAAVWRRYDKSPLEGSWGQGTQVTLSS | high polyreactivity
QVQLVESGGGLVQAGGSLRLSCAASGMTFTDYAMGWYRQAPGKERELVAAISRSGGTTYYADSVKGRFTISRDNAKNTVYLQMNSLKPEDTAVYYCAARVTPGRNGGGYWGQGTQVTVSS | high polyreactivity
QVQLVESGGGLVQAGGSLRLICAASGSIFYRNAMGWYRQAPGKERELVAVITDGGTTSYADSVKGRFTISRDNAKNTVYLQMNSLKPEDTAVYYCAADRQPVYPSLGVYWDYGHDYWGQGTQVTVSS | low polyreactivity
QVQLVESGGGLVQAGGSLRLSCAASGSTFYENAMVWSRQAPGKDRELVAAISRSTGRTYYADSVKGRFTISRDNAKNTVYLQMNSLKPEDTAVYYCAARVYGRMYFWGQGTQVTVSS | high polyreactivity
QVQLVESGGGLVQAGGSLRLSCAASGIIFGYYAMGWYRQAPGKERELVAAIDWTGGNTYYAVSVKGRFTISRDNAKNTVYLQMNSLKPEDTAVYYCAADYNSQEDYWGQGTQVTVSS | low polyreactivity
QVQLVESGGGLVQAGGSLRLSCAASGLTFSIYAMGWYRQAPGKERELVASITSSGGSTYYADSVKGRFTISRDNAKNTVYLQMNSLKPEDTAVYYCATGRSRDYDYWGQGTQVTVSS | high polyreactivity
QVQLVESGGGLVQAGGSLRLTCAAYGRIFRYYPMGWYRQAPGKERDLVAAINWRGTSTSYADSVKGRFTISRDIAKNTVYLQMNSLKPEETAVYYCARVAWSESDWQKMDYWGQGTQVTVSS | high polyreactivity
HVKLVDSGGGLVKAGGSLRLTCAASGITIYTNDMGWSRQARGKERELVAAITTNDGDTYYADSVKGRFTISRDNEKNTVYLQMNSLKPEDNAVYYCAADSGSTSEYEYWGQGTQVTVSS | low polyreactivity
QVQLVESGVGLVQAGGSLSLSCAASGRIFTYNALGWYRQAPGKERELVAAISALGGITYYADSVKGRFTISRDNAKITVYLQMNSLKPEDTAVYYCNKRYSSWSGVHDYWGQGTQVTVSS | high polyreactivity
QVQLVESGGGLVQAGGSLRISCAASGRIFSGNAMGWYRQAPGKERELVAAISSGGSTYYADSVKGRFTISRYNAMNTVFLQMNILKPEDTAVYYCKKSRGRKWRGNYSVVKLLMGYWGQGSQVTVSS | low polyreactivity
QDQLVESGGGLVQAGGSLRLSCAASGSTLYAYAMGWYRQAPGKERELVAAISFSTTSTYYADSVKGRFTISRDYEKNTVYLQMNSLKPEDTAVYYCAAEYWYYWEYEYWGLGTQVTVSS | high polyreactivity
